Assays:
[1] = biological target: B. burgdorferi N40 spirochetes (low-passage, intact cells); test: competition: spirochetes preincubated with unlabeled competitor, then 125I-labeled Dcn
[2] = biological target: Bovine decorin (Dcn) purified from fetal skin (bovine) (UniProt P21793); test: competition: Dcn-coated wells preincubated with 200 ng protein, then B. burgdorferi N40; ELISA
[3] = biological target: Bovine decorin (Dcn) purified from fetal skin (bovine) (UniProt P21793); test: microtiter wells coated with increasing amounts of Dbps, biotin-labeled Dcn bound for 1 hour

Substance | percent inhibition of binding of 125I-labeled Dcn [1] | percent inhibition of attachment of B. burgdorferi N40 to Dcn [2] | activity compared with DbpA:549 [3]
aggrecan isolated from bovine cartilage | < 10% | – | –
bovine serum albumin (BSA) (from UniProt P02769) | < 10% | – | –
fibrinogen (KabiVitrium) | < 10% | – | –
DbpA:C25A (site-directed mutant of DbpA:549) | – | 93% | < 80%
thyroglobulin type II (Sigma) | < 10% | – | –
DbpA:549 (recombinant polyhistidine fusion of DbpA of B. burgdorferi strain 297 lacking nine amino terminal residues) | – | 93% | –
fetuin type IV (Sigma) | < 10% | – | –

Source: patent US6312907
